Source: the supplement of paper PMC7125110
± gives the standard error. For some assays here: This sample holds only a part of the variants without activity.

B1: glmS ribozyme (parent)
chain: AUAAAAGCGCCAGAACUACAGAAAUGUAGUUGACGAGGAGGAGGUUUAUCGAAUUUUCGGCGGAUGCCUCCAAA

What was measured:
Details in all cases: with glucosamine-6-phosphate
glucosamine-6-phosphate [1] = variants of: B1; assay: kcat; higher = faster cleavage; RNA array
Method in brief: (§1)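 Sequenced MiSeq chips were the platform: E. coli RNA polymerase transcribed barcoded ribozyme variants on them in situ, and a hybridised Cy3 probe tracked these at 37 °C. After glucosamine-6-phosphate (40 μM to 10 mM) in HEPES/KCl/Mg(OAc)2 buffer was flowed in, tiles were imaged over ~14 h. Signals normalised to baseline and to non-cleaving reference variants were reduced to per-tile medians and fit to one- or two-exponential decays to obtain kobs. kcat and KM were derived through weighted Michaelis–Menten fits across concentrations.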

glucosamine-6-phosphate [2] = variants of: B1; assay: self-cleavage kobs at 160 uM GlcN6P; higher = faster cleavage; RNA array
Method in brief: as §1

glucosamine-6-phosphate [3] = variants of: B1; assay: self-cleavage kobs at 640 uM GlcN6P; higher = faster cleavage; RNA array
Method in brief: as §1

glucosamine-6-phosphate [4] = variants of: B1; assay: self-cleavage kobs at 2500 uM GlcN6P; higher = faster cleavage; RNA array
Method in brief: as §1

glucosamine-6-phosphate [5] = variants of: B1; assay: self-cleavage kobs at 10000 uM GlcN6P; higher = faster cleavage; RNA array
Method in brief: as §1

glucosamine-6-phosphate [6] = variants of: B1; assay: KM; higher = weaker cofactor use; RNA array
Method in brief: as §1

glucosamine-6-phosphate [7] = variants of: B1; assay: self-cleavage kobs at 40 uM GlcN6P; higher = faster cleavage; RNA array
Method in brief: as §1

Row | Variant | kcat (glucosamine-6-phosphate [1]) | self-cleavage kobs at 160 uM GlcN6P (glucosamine-6-phosphate [2]) | self-cleavage kobs at 640 uM GlcN6P (glucosamine-6-phosphate [3]) | self-cleavage kobs at 2500 uM GlcN6P (glucosamine-6-phosphate [4]) | self-cleavage kobs at 10000 uM GlcN6P (glucosamine-6-phosphate [5]) | KM (glucosamine-6-phosphate [6]) | self-cleavage kobs at 40 uM GlcN6P (glucosamine-6-phosphate [7])
1 | U45A C67A C68G | 1.46e-05 ± 7.2e-06 s⁻¹ |  |  |  |  |  | 
2 | A12G G32U C70U | 0.00103 ± 0.00043 s⁻¹ | 0.000103 ± 1.9e-05 s⁻¹ | 0.000285 ± 6.9e-05 s⁻¹ | 0.000425 ± 9e-05 s⁻¹ | 0.00121 ± 0.00019 s⁻¹ |  | 
3 | C16U C71A | 0.00166 ± 0.00032 s⁻¹ | 0.000667 ± 0.00016 s⁻¹ | 0.00168 ± 0.0003 s⁻¹ | 0.00113 ± 0.00027 s⁻¹ | 0.00173 ± 0.00034 s⁻¹ | 298 ± 95 µM | 0.000186 ± 2.6e-05 s⁻¹
4 | U55A C68G | 8.49e-05 ± 3.5e-06 s⁻¹ | 6.64e-05 ± 1e-05 s⁻¹ | 8.75e-05 ± 1.2e-05 s⁻¹ | 8.44e-05 ± 1.1e-05 s⁻¹ | 8.04e-05 ± 7.4e-06 s⁻¹ | 51.2 ± 14 µM | 3.36e-05 ± 1e-05 s⁻¹
5 | G29U C67A U69A | 7.55e-05 ± 1.2e-05 s⁻¹ |  | 5.78e-05 ± 2.8e-05 s⁻¹ | 0.000106 ± 2.6e-05 s⁻¹ | 6.88e-05 ± 1.3e-05 s⁻¹ |  | 
6 | A14U C67A | 0.00153 ± 0.00048 s⁻¹ | 0.000172 ± 2.5e-05 s⁻¹ | 0.000406 ± 5.4e-05 s⁻¹ | 0.00137 ± 0.00031 s⁻¹ | 0.00155 ± 0.00023 s⁻¹ | 1240 ± 540 µM | 6.24e-05 ± 7.4e-06 s⁻¹
7 | G43A C68A | 2.1e-05 ± 8.5e-06 s⁻¹ |  |  |  |  |  | 
8 | G51U U56C | < 1e-05 s⁻¹ | < 1e-05 s⁻¹ | < 1e-05 s⁻¹ |  |  |  | < 1e-05 s⁻¹
9 | A6G U55G | 0.000588 ± 4.1e-05 s⁻¹ |  | 0.000133 ± 3.4e-05 s⁻¹ | 0.000299 ± 5.2e-05 s⁻¹ | 0.000473 ± 7.8e-05 s⁻¹ | 2390 ± 350 µM | 
10 | A12U U69G | 0.000139 ± 1.8e-05 s⁻¹ | 2.7e-05 ± 8.8e-06 s⁻¹ | 9.2e-05 ± 1e-05 s⁻¹ | 0.000109 ± 1e-05 s⁻¹ | 0.000145 ± 1.5e-05 s⁻¹ | 437 ± 200 µM | 2.68e-05 ± 8.8e-06 s⁻¹
11 | U31A G41U | 0.000384 ± 3.8e-05 s⁻¹ | 0.000103 ± 2e-05 s⁻¹ | 0.000289 ± 6.2e-05 s⁻¹ | 0.00034 ± 8.7e-05 s⁻¹ | 0.000344 ± 6e-05 s⁻¹ | 430 ± 89 µM | 2.67e-05 ± 1.2e-05 s⁻¹
12 | U45C A53G | 0.00416 ± 0.0017 s⁻¹ | 0.000134 ± 4.9e-05 s⁻¹ | 0.000905 ± 0.00016 s⁻¹ | 0.00188 ± 0.00042 s⁻¹ | 0.00291 ± 0.00074 s⁻¹ |  | 
13 | U31A U55A | 0.0251 ± 0.0036 s⁻¹ | 0.000953 ± 0.00022 s⁻¹ | 0.00452 ± 0.0014 s⁻¹ | 0.00953 ± 0.0034 s⁻¹ | 0.0182 ± 0.0035 s⁻¹ | 3810 ± 790 µM | 
14 | G32U C58A | 0.00151 ± 0.00022 s⁻¹ | 6.77e-05 ± 1.3e-05 s⁻¹ | 0.000164 ± 1.4e-05 s⁻¹ | 0.000495 ± 4.5e-05 s⁻¹ | 0.00102 ± 8.8e-05 s⁻¹ | 5030 ± 1000 µM | 
15 | A15G U56C | 0.0034 ± 0.0013 s⁻¹ | 0.00017 ± 2.9e-05 s⁻¹ | 0.000805 ± 0.00025 s⁻¹ | 0.00116 ± 0.00021 s⁻¹ | 0.00354 ± 0.0006 s⁻¹ |  | 5.65e-05 ± 1.3e-05 s⁻¹
16 | G29A U56A | 0.00321 ± 0.0012 s⁻¹ | 0.000108 ± 2.2e-05 s⁻¹ | 0.000389 ± 7.9e-05 s⁻¹ | 0.000941 ± 0.00015 s⁻¹ | 0.00255 ± 0.00036 s⁻¹ |  | 4.94e-05 ± 9.7e-06 s⁻¹

Row | Variant | kcat (glucosamine-6-phosphate [1]) | self-cleavage kobs at 160 uM GlcN6P (glucosamine-6-phosphate [2]) | self-cleavage kobs at 640 uM GlcN6P (glucosamine-6-phosphate [3]) | self-cleavage kobs at 2500 uM GlcN6P (glucosamine-6-phosphate [4]) | self-cleavage kobs at 10000 uM GlcN6P (glucosamine-6-phosphate [5]) | KM (glucosamine-6-phosphate [6]) | self-cleavage kobs at 40 uM GlcN6P (glucosamine-6-phosphate [7])
17 | G43C C68U | 0.000722 ± 5.4e-05 s⁻¹ | 7.12e-05 ± 1.6e-05 s⁻¹ | 0.000235 ± 2.8e-05 s⁻¹ | 0.000572 ± 0.00012 s⁻¹ | 0.000615 ± 6.7e-05 s⁻¹ | 1370 ± 190 µM | 
18 | G13C G66A | 6.45e-05 ± 6.3e-06 s⁻¹ |  |  | 4.1e-05 ± 1.2e-05 s⁻¹ | 5.46e-05 ± 1.2e-05 s⁻¹ | 1630 ± 600 µM | 
19 | G37A U47G U55G | 0.000459 ± 0.00013 s⁻¹ |  | 0.000101 ± 1.6e-05 s⁻¹ | 0.000183 ± 2.9e-05 s⁻¹ | 0.000412 ± 6.3e-05 s⁻¹ |  | 
20 | G13A A36C | < 1e-05 s⁻¹ |  |  |  | < 1e-05 s⁻¹ |  | 
21 | C11A C67G | 5.42e-05 ± 1.1e-05 s⁻¹ | 3.16e-05 ± 1.1e-05 s⁻¹ | 8.75e-05 ± 1.5e-05 s⁻¹ | 3.8e-05 ± 1e-05 s⁻¹ | 5.65e-05 ± 8.7e-06 s⁻¹ |  | 
22 | C10A A12C U56A | 0.000168 ± 4.1e-05 s⁻¹ |  | 7.12e-05 ± 3e-05 s⁻¹ | 0.000306 ± 0.00011 s⁻¹ | 0.00015 ± 2.7e-05 s⁻¹ |  | 
23 | A14G C61A | 1.1e-05 ± 4.8e-06 s⁻¹ |  |  |  |  |  | 
24 | G32U G63A | < 1e-05 s⁻¹ |  | < 1e-05 s⁻¹ | < 1e-05 s⁻¹ | < 1e-05 s⁻¹ |  | 
25 | U31A A33U | 2.01e-05 ± 3.8e-06 s⁻¹ |  |  |  |  |  | < 1e-05 s⁻¹
26 | C50G G51A G59U C70G | 0.000102 ± 2.5e-05 s⁻¹ | 9.16e-05 ± 3.2e-05 s⁻¹ | 0.000132 ± 2.9e-05 s⁻¹ | 7.99e-05 ± 2e-05 s⁻¹ |  |  | 
27 | U69C C70U | 0.000681 ± 0.00015 s⁻¹ | 0.000108 ± 2.4e-05 s⁻¹ | 0.000254 ± 3.7e-05 s⁻¹ | 0.000524 ± 7.1e-05 s⁻¹ | 0.000743 ± 0.00018 s⁻¹ | 854 ± 350 µM | 5.3e-05 ± 1.3e-05 s⁻¹
28 | G59A | 8.71e-05 ± 2.2e-06 s⁻¹ |  | 2.2e-05 ± 1.9e-06 s⁻¹ | 5.42e-05 ± 1.8e-06 s⁻¹ | 7.42e-05 ± 1.2e-06 s⁻¹ | 1670 ± 170 µM | 
29 | A39C C71A | 6.38e-05 ± 6.4e-06 s⁻¹ |  |  | 4.16e-05 ± 1.1e-05 s⁻¹ | 5.25e-05 ± 7.2e-06 s⁻¹ | 1930 ± 720 µM | 
30 | G51U A52C | < 1e-05 s⁻¹ |  |  | < 1e-05 s⁻¹ | < 1e-05 s⁻¹ |  | < 1e-05 s⁻¹
31 | G13U C71G | 5.14e-05 ± 2.7e-06 s⁻¹ |  | 3.7e-05 ± 9e-06 s⁻¹ | 5.35e-05 ± 1e-05 s⁻¹ | 5.01e-05 ± 5.6e-06 s⁻¹ | 155 ± 74 µM | 
32 | A52U G59A C68G | < 1e-05 s⁻¹ |  |  |  |  |  | 
